Experimental findings from patent US20260193377A1 (FULL LIFE TECHNOLOGIES HK, published 2026) are described below.

In experiment [1] the target is T1, GCC expressed on T84 cells (UniProt P25092 24-1073, limits assumed).
T1 construct: whole, on cells; also called guanylyl cyclase C; GUCY2C
The experiment is described as follows: flow cytometry on T84 cells expressing GCC, 300 nm [sic], PE-anti human Fc secondary; Blank 30.7. On the procedure:
T84 cells expressing GCC were used to evaluate the binding affinity of the anti-GCC sdAbs. Briefly, 50 μL T84 cells at density of 3×10⁶ cells/mL were incubated with 50 μL anti-GCC sdAbs at 4° C. for 2 hours. After incubation, the cells were washed three times with 400 μL FACS buffer, resuspended with PE-anti human Fc 2nd antibody (eBioscience 12-4998-82, 1:1000 dilution) and incubated at 4° C. for 60 min. Then the cells were collected and subject to FACS analysis.

Experiment [2] addresses T2, Human GUCY2C (captured on anti-human Fc capturing antibody, SPR) (human).
T2 construct: also called human GCC; guanylyl cyclase C
Description: SPR (Biacore T200), human GUCY2C captured via anti-human Fc, sdAb as analyte, 1:1 fit. On the procedure:
Anti-GCC sdAbs were diluted with 1×HBS-EP buffer. Human GUCY2C was captured on anti-human Fc capturing Ab-immobilized sCM5 chip. Then anti-GCC sdAb samples were injected with a flow rate of 10 μl/min for 180 sec, followed by dissociation for 800 sec. The binding curves were locally fitted with Biacore® T200 analysis software (BIAevaluation) using a 1:1 Langmuir binding model.

T2 sequence (P25092 24-430): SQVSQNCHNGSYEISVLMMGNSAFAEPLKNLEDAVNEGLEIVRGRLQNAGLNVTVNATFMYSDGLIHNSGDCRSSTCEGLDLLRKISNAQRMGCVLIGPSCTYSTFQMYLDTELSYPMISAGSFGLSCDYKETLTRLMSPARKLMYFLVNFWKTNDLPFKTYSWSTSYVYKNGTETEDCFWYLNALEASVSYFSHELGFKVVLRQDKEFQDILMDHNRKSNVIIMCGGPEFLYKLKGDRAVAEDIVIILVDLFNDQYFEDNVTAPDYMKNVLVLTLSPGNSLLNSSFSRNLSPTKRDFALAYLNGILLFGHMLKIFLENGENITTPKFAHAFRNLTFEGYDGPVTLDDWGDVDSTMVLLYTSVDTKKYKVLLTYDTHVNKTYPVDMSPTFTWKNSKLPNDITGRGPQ
T1 sequence (P25092 24-1073 limits assumed): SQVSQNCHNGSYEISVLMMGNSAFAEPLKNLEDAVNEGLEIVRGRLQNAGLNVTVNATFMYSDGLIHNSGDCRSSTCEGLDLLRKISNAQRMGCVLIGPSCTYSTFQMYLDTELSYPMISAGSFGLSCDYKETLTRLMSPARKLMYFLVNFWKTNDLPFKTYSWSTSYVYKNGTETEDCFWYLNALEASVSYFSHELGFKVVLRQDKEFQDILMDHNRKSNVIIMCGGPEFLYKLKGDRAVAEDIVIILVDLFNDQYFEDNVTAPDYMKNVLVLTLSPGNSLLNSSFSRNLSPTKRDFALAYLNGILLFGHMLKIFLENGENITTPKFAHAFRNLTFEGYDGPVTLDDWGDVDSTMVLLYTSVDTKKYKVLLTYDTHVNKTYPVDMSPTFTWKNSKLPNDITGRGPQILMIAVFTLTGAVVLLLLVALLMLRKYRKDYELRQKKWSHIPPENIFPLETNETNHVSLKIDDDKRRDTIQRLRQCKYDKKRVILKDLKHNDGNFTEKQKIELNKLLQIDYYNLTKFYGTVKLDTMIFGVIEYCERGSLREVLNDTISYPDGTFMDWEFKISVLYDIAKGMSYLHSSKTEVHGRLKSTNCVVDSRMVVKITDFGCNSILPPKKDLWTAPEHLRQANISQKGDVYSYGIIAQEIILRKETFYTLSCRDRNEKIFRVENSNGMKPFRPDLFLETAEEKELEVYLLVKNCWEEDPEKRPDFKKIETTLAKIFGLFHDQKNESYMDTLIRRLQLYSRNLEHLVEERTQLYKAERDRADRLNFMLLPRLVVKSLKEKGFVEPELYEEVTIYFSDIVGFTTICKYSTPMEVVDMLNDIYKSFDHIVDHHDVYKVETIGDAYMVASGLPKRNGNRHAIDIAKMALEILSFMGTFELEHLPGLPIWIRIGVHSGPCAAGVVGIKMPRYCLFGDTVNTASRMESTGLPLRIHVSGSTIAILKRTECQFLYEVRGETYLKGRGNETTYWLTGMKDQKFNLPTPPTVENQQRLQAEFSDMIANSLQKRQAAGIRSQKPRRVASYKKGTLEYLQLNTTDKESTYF

B1: anti-GCC single domain antibody SEQ ID NO. 9 (VHH)
VHH: QKQLVESGGGLVQPGGSLRLSCAASGETLSNYNIGWFRQAPGKEREGVSCISQIGFTNYADSVKGRFTLFRASAENTVYLQMNSLKPEDTAVYYCAVTGGRWASCSFLPLRQDFESWGQGTLVTVSS
notes: Alpaca-derived sdAb
Usually Kd stands for the equilibrium constant for the complex coming apart. Read a high Kd as lower affinity. The koff is the first-order rate constant of dissociation. Read a high koff as fast dissociation. As usually defined, the kon is the second-order rate constant of association. Regarding B1, the “Geometric mean MFI” value in experiment [1] is 447. Also, in experiment [2], binding was put at a Kd of 0.116 nM, the off-rate (koff) came to 0.00103 s⁻¹ and the association rate constant (kon) came out at 8.84e+06 M⁻¹ s⁻¹.

B2: anti-GCC single domain antibody SEQ ID NO. 8 (VHH)
VHH: EVDLVESGGGLVQPGGSLRLSCGASGFTFSHYAMSWVRQAPGKALEWVSDISSGGGITKYADSVKGRFTISRDDAQNTLYLQMNSLKPEDTAVYYCAKASAIGYLAYWMRNPVEYDTRGQGTLVTVSS
notes: Alpaca-derived sdAb
In the case of B2, the “Geometric mean MFI” value in experiment [1] came to 669. In experiment [2], this molecule returned a dissociation constant (Kd) of 0.0259 nM, a dissociation rate constant (koff) of 6.7e-05 s⁻¹ and a kon of 2.59e+06 M⁻¹ s⁻¹.
